Results as given in article PMC6086891, “Adenosine Kinase couples sensing of cellular potassium depletion to purine metabolism” (Scientific Reports, 2018).

Substrate: Nc1ncnc2c1ncn2[C@@H]1O[C@H](COP(=O)(O)OP(=O)(O)OP(=O)(O)O)[C@@H](O)[C@H]1O
Test: purified protein
Type: biochemical, Mus musculus
Conditions: Mg2+ BS1 (ATP site); adenosine competes with ATP

B1: Adenosine Kinase (mADK) (Mus musculus) (protein)
chain: MAAADEPKPKKLKVEAPQALSENVLFGMGNPLLDISAVVDKDFLDKYSLKPNDQILAEDKHKELFDELVKKFKVEYHAGGSTQNSMKVAQWLIQEPHKAATFFGCIGIDKFGEILKRKAADAHVDAHYYEQNEQPTGTCAACITGGNRSLVANLAAANCYKKEKHLDLERNWVLVEKARVYYIAGFFLTVSPESVLKVARYAAENNRVFTLNLSAPFISQFFKEALMDVMPYVDILFGNETEAATFAREQGFETKDIKEIAKKAQALPKVNSKRQRTVIFTQGRDDTIVAAENDVTAFPVLDQNQEEIIDTNGAGDAFVGGFLSQLVSDKPLTECIRAGHYAASVIIRRTGCTFPEKPDFH
Km: 2.1 µM
